# Laboratory results as given in US20210198328A1, “MODULATED CAS-INHIBITORS” (Universität Heidelberg, priority 2017, published 2021).
# B1: AcrIIA4: anti-CRISPR polypeptide of a Listeria monocytogenes prophage, SEQ ID NO: 1 (protein)
# chain: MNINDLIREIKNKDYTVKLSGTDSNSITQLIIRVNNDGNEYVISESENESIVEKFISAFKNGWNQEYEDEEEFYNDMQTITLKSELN
# modifications: Listeria monocytogenes
# Test system: dCas9-3xRFP
# Test: Telomere labeling, automated image analysis
# Format: cell-based, Streptococcus pyogenes
# Conditions: U2OS, light or dark 20 h
# Method: U2OS cells were seeded into 4-compartment CELLview cell culture dishes (Greiner Bio-One) at a density of 30,000 cells per compartment. The next day, cells were transfected with vectors encoding (i) a CMV promoter-driven dCas9-3xRFP-P2A-CASANOVA and a U6 promoter-driven telomere-targeting gRNA, (ii) a telomere-targeting gRNA and GFP transfection marker, and (iii) a CMV promoter-driven CASANOVA in a ratio of 20:6:3 using 362.5 ng total DNA and 1.5 μl JetPrime for transfection (per compartment).
# In the positive control samples, vector i was replaced by a vector encoding dCas9-3xRFP (without the P2A-CASANOVA) and a U6 promoter-driven telomere-targeting RNA, and vector iii was replaced by an irrelevant DNA. […] SlowFade™ Diamond Antifade Mountant with DAPI (Invitrogen) was added and imaging was performed using the aforementioned microscopy setup and the following excitation/detection settings: 405 nm (1% laser powerV410-490 nm for DAPI, 488 nm (2% laser power)/493-578 nm for GFP, or 552 nm (1% laser power)/578-789 nm for RFP. RFP fluorescent spots (i.e., labeled telomeres) were then detected and quantified using a fully automated image analysis pipeline as follows. The ImageJ2 (beta) Integration in KNIME Version 3.5.2 (KNIME AG) was used to create an automated image processing and analysis pipeline employed for quantification of labeled telomeres. […]
molecule,measurement,value
B1,"telomere labeling, light-independent",weak
